Measurements published in patent US20210403506A1 (XDCEXPLORER SHANGHAI, published 2021).
Square brackets hold non-standard residues; d marks the D form. Primed or numbered codes have the meaning given here. Ends that are not written are not given here. * marks the point of attachment. Pro(trans-4-Ph) = O=C(O)[C@@H]1C[C@@H](c2ccccc2)CN1; Pro(5R-Ph) = O=C(O)[C@@H]1CC[C@H](c2ccccc2)N1; dTyr(3-F) = N[C@H](Cc1ccc(O)c(F)c1)C(=O)O; PEG8 = NCCOCCOCCOCCOCCOCCOCCOCCOCCC(=O)O; Phe(4-Cl) = N[C@@H](Cc1ccc(Cl)cc1)C(=O)O; Pro(diF)″ = difluoroproline (DiFluorPro); Phe(4-Me) = Cc1ccc(C[C@H](N)C(=O)O)cc1; 1Nal = N[C@@H](Cc1cccc2ccccc12)C(=O)O; 2Nal = N[C@@H](Cc1ccc2ccccc2c1)C(=O)O; dNMeY = CN[C@H](Cc1ccc(O)cc1)C(=O)O; Hydrocinnamoyl = O=C(CCc1ccccc1)*; Palmitoyl = CCCCCCCCCCCCCCCC(=O)*; NMeF = CN[C@@H](Cc1ccccc1)C(=O)O; 3‑phenylpropyl = c1ccc(CCC*)cc1; Tic = O=C(O)[C@@H]1Cc2ccccc2CN1; NMeL = CN[C@@H](CC(C)C)C(=O)O; Pro(4Ph) = 4-phenylproline; NMeS = CN[C@@H](CO)C(=O)O; Thz = O=C(O)[C@@H]1CSCN1; Aze = O=C(O)[C@@H]1CCN1; βAla = NCCC(=O)O

Target: T1, human Chemokine like receptor 1 (human, UniProt Q99788 1-373)
T1 sequence (looked up): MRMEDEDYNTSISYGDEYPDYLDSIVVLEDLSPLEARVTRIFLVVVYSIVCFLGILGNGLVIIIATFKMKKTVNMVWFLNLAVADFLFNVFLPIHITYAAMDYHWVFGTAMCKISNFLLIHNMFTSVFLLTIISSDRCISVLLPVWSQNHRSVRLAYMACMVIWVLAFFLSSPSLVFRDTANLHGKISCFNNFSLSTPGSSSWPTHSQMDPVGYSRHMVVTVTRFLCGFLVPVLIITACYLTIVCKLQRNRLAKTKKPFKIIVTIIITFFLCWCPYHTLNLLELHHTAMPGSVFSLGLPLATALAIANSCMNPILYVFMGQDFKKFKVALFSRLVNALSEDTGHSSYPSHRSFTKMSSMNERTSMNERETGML
Assay: cell-based or functional assay

B1: YW-206 (peptide)
peptide: [dY]F[NMeL]P[dS]QF[dA][Phe(4-Cl)]S
B1 was tested. Which “EC50 (µM), activation of Tango CMKLR1-bla U2OS cells” value (“EC50 (µM), activation” below) did it give?
Its value is 0.009 µM.

B2: YW-114 (peptide)
peptide: [dY]FL[Thz][dS]QF[dA][Tic]S-OH
modifications: N-terminus assumed
SMILES: CC(C)C[C@H](NC(=O)[C@H](Cc1ccccc1)NC(=O)[C@H](N)Cc1ccc(O)cc1)C(=O)N1CSC[C@H]1C(=O)N[C@H](CO)C(=O)N[C@@H](CCC(N)=O)C(=O)N[C@@H](Cc1ccccc1)C(=O)N[C@H](C)C(=O)N1Cc2ccccc2C[C@H]1C(=O)N[C@@H](CO)C(=O)O
How did the “EC50 (µM), activation” value turn out when B2 was run?
Its value is 0.005 µM.

B3: YW-104 (peptide)
peptide: [dY][NMeF]LP[dS]QF[dA][Tic]S-OH
modifications: N-terminus assumed
SMILES: CC(C)C[C@H](NC(=O)[C@H](Cc1ccccc1)N(C)C(=O)[C@H](N)Cc1ccc(O)cc1)C(=O)N1CCC[C@H]1C(=O)N[C@H](CO)C(=O)N[C@@H](CCC(N)=O)C(=O)N[C@@H](Cc1ccccc1)C(=O)N[C@H](C)C(=O)N1Cc2ccccc2C[C@H]1C(=O)N[C@@H](CO)C(=O)O
B3 was tested. Which “EC50 (µM), activation” value did it give?
The value was 0.08 µM.

B4: YW-113 (peptide)
peptide: [dY]FL[Pro(4Ph)][dS]QF[dA][Tic]S-OH
For B4, which “EC50 (µM), activation” value is on record?
The value was 0.0086 µM.

B5: YW-122 (peptide)
peptide: [dY]F[NMeL][Thz][dS]Q[2Nal][dA][Tic]S-OH
For B5, which “EC50 (µM), activation” value is on record?
The value was 0.0006 µM.

B6: YW-111 (peptide)
peptide: Hydrocinnamoyl-[dY]F[NMeL]P[dS]QF[dA][Tic]S-OH
SMILES: CC(C)C[C@@H](C(=O)N1CCC[C@H]1C(=O)N[C@H](CO)C(=O)N[C@@H](CCC(N)=O)C(=O)N[C@@H](Cc1ccccc1)C(=O)N[C@H](C)C(=O)N1Cc2ccccc2C[C@H]1C(=O)N[C@@H](CO)C(=O)O)N(C)C(=O)[C@H](Cc1ccccc1)NC(=O)[C@@H](Cc1ccc(O)cc1)NC(=O)CCc1ccccc1
With B6 as the binder, how does the “EC50 (µM), activation” value read?
Its value is 0.002 µM.

B7: YW-215 (peptide)
peptide: [dY]F[NMeL][Pro(trans-4-Ph)][dS]QF[dA][Tic]S
For B7, which “EC50 (µM), activation” value is on record?
Its value is 0.0048 µM.

B8: YW-202 (peptide)
peptide: [dY][Phe(4-Me)][NMeL]P[dS]QF[dA][Tic]S
For B8, which “EC50 (µM), activation” value is on record?
The value was 0.0064 µM.

B9: YW-115 (peptide)
peptide: [dY]FL[Aze][dS]QF[dA][Tic]S-OH
modifications: N-terminus assumed
SMILES: CC(C)C[C@H](NC(=O)[C@H](Cc1ccccc1)NC(=O)[C@H](N)Cc1ccc(O)cc1)C(=O)N1CC[C@H]1C(=O)N[C@H](CO)C(=O)N[C@@H](CCC(N)=O)C(=O)N[C@@H](Cc1ccccc1)C(=O)N[C@H](C)C(=O)N1Cc2ccccc2C[C@H]1C(=O)N[C@@H](CO)C(=O)O
With B9 as the binder, how does the “EC50 (µM), activation” value read?
Its value is 0.19 µM.

B10: YW-96 (peptide)
peptide: [dY]FL[S‑Pip][dS]QF[dA][Tic]S
For B10, which “EC50 (µM), activation” value is on record?
The value was 0.039 µM.

B11: YW-220 (peptide)
peptide: [dNMeY]F[NMeL]P[dS]Q[2Nal][dA][Tic][NMeS]
modifications: not fully specified (residue 4); printed as (NMe-D-Tyr)-Phe-(NMe-Leu)-Pro(tran-4F)-(D-Ser)-Gln-(Nal-2)-(D-Ala)-Tic-(NMe-Ser)
For B11, which “EC50 (µM), activation” value is on record?
The value was 0.00067 µM.

B12: YW-221 (peptide)
peptide: [dTyr(3-F)]F[NMeL]P[dS]Q[2Nal][dA][Tic][NMeS]
modifications: not fully specified (residue 4); printed as (D-Tyr(3F))-Phe-(NMe-Leu)-Pro(tran-4F)-(D-Ser)-Gln-(Nal-2)-(D-Ala)-Tic-(NMe-Ser)
Which “EC50 (µM), activation” value does the source give for B12 here?
Its value is 0.00068 µM.

B13: YW-103 (peptide)
peptide: [dNMeY]FLP[dS]QF[dA][Tic]S-OH
modifications: N-terminus assumed
SMILES: CN[C@H](Cc1ccc(O)cc1)C(=O)N[C@@H](Cc1ccccc1)C(=O)N[C@@H](CC(C)C)C(=O)N1CCC[C@H]1C(=O)N[C@H](CO)C(=O)N[C@@H](CCC(N)=O)C(=O)N[C@@H](Cc1ccccc1)C(=O)N[C@H](C)C(=O)N1Cc2ccccc2C[C@H]1C(=O)N[C@@H](CO)C(=O)O
For B13, which “EC50 (µM), activation” value is on record?
Its value is 0.0094 µM.

B14: YW-222 (peptide)
peptide: [dTyr(3-F)]F[NMeL]P[dS]Q[2Nal][dA][Tic]S
modifications: not fully specified (residue 4); printed as [D-Tyr(3F)]-Phe-(NMe-Leu)-Pro(tran-4F)-(D-Ser)-Gln-(Nal-2)-(D-Ala)-Tic-Ser
B14 was tested. Which “EC50 (µM), activation” value did it give?
Its value is 0.00034 µM.

B15: YW-217 (peptide)
peptide: {Palmitoyl-PEG8}-[βAla][βAla][dNMeY]F[NMeL][Pro(trans-4-Ph)][dS]Q[2Nal][dA][Tic]S
For B15, which “EC50 (µM), activation” value is on record?
Its value is 0.0033 µM.

B16: YW-117 (peptide)
peptide: [dY]FLP[dS]Q[1Nal][dA][Tic]S-OH
modifications: N-terminus assumed
SMILES: CC(C)C[C@H](NC(=O)[C@H](Cc1ccccc1)NC(=O)[C@H](N)Cc1ccc(O)cc1)C(=O)N1CCC[C@H]1C(=O)N[C@H](CO)C(=O)N[C@@H](CCC(N)=O)C(=O)N[C@@H](Cc1cccc2ccccc12)C(=O)N[C@H](C)C(=O)N1Cc2ccccc2C[C@H]1C(=O)N[C@@H](CO)C(=O)O
For B16, which “EC50 (µM), activation” value is on record?
The value was 0.0039 µM.

B17: YW-97 (peptide)
peptide: [dF]FLP[dS]QF[dA][Tic]S-OH
modifications: N-terminus assumed
SMILES: CC(C)C[C@H](NC(=O)[C@H](Cc1ccccc1)NC(=O)[C@H](N)Cc1ccccc1)C(=O)N1CCC[C@H]1C(=O)N[C@H](CO)C(=O)N[C@@H](CCC(N)=O)C(=O)N[C@@H](Cc1ccccc1)C(=O)N[C@H](C)C(=O)N1Cc2ccccc2C[C@H]1C(=O)N[C@@H](CO)C(=O)O
How did the “EC50 (µM), activation” value turn out when B17 was run?
Its value is 0.05 µM.

B18: YW-205 (peptide)
peptide: [dY]F[NMeL]P[dS]QF[dA][Phe(4-Me)]S
With B18 as the binder, how does the “EC50 (µM), activation” value read?
Its value is 0.0062 µM.

B19: YW-121 (peptide)
peptide: [dY]F[NMeL][Thz][dS]QF[dA][Tic]S-OH
modifications: N-terminus assumed
SMILES: CC(C)C[C@@H](C(=O)N1CSC[C@H]1C(=O)N[C@H](CO)C(=O)N[C@@H](CCC(N)=O)C(=O)N[C@@H](Cc1ccccc1)C(=O)N[C@H](C)C(=O)N1Cc2ccccc2C[C@H]1C(=O)N[C@@H](CO)C(=O)O)N(C)C(=O)[C@H](Cc1ccccc1)NC(=O)[C@H](N)Cc1ccc(O)cc1
B19 was tested. Which “EC50 (µM), activation” value did it give?
Its value is 0.0007 µM.

B20: YW-216 (peptide)
peptide: [dNMeY]F[NMeL][Pro(4Ph)][dS]Q[2Nal][dA][Tic]S
With B20 as the binder, how does the “EC50 (µM), activation” value read?
Its value is 0.0013 µM.

B21: YW-225 (peptide)
peptide: [dNMeY]F[NMeL][Pro(diF)″][dS]Q[2Nal][dA][Tic][NMeS]-OH
For B21, which “EC50 (µM), activation” value is on record?
The value was 0.00064 µM.

B22: YW-224 (peptide)
peptide: [dY]F[NMeL][Pro(diF)][dS]Q[2Nal][dA][Tic][NMeS]
Which “EC50 (µM), activation” value does the source give for B22 here?
Its value is 0.0013 µM.

B23: YW-110 (peptide)
peptide: [dY]FLP[dS]QF[dA][Tic][NMeS]-OH
modifications: N-terminus assumed
SMILES: CC(C)C[C@H](NC(=O)[C@H](Cc1ccccc1)NC(=O)[C@H](N)Cc1ccc(O)cc1)C(=O)N1CCC[C@H]1C(=O)N[C@H](CO)C(=O)N[C@@H](CCC(N)=O)C(=O)N[C@@H](Cc1ccccc1)C(=O)N[C@H](C)C(=O)N1Cc2ccccc2C[C@H]1C(=O)N(C)[C@@H](CO)C(=O)O
For B23, which “EC50 (µM), activation” value is on record?
Its value is 0.013 µM.

B24: YW-223 (peptide)
peptide: GG[dY]F[NMeL]P[dS]Q[2Nal][dA][Tic]S
modifications: not fully specified (residue 6, N-terminus)
For B24, which “EC50 (µM), activation” value is on record?
The value was 0.00033 µM.

B25: YW-204 (peptide)
peptide: [dY]F[NMeL]P[dT]QF[dA][Tic]S
With B25 as the binder, how does the “EC50 (µM), activation” value read?
Its value is 0.062 µM.

B26: YW-203 (peptide)
peptide: [dY][Phe(4-Cl)][NMeL]P[dS]QF[dA][Tic]S
With B26 as the binder, how does the “EC50 (µM), activation” value read?
The value was 0.0082 µM.

B27: YW-226 (peptide)
peptide: [dTyr(3-F)]F[NMeL][Pro(diF)″][dS]Q[2Nal][dA][Tic][NMeS]-OH
B27 was tested. Which “EC50 (µM), activation” value did it give?
Its value is 0.0033 µM.

B28: YW-207 (peptide)
peptide: {3‑phenylpropyl}-[dY]F[NMeL]P[dS]QF[dA][Tic]S-OH
How did the “EC50 (µM), activation” value turn out when B28 was run?
The value was 0.00092 µM.

B29: YW-112 (peptide)
peptide: [dY]FL[Pro(5R-Ph)][dS]QF[dA][Tic]S-OH
modifications: N-terminus assumed
SMILES: CC(C)C[C@H](NC(=O)[C@H](Cc1ccccc1)NC(=O)[C@H](N)Cc1ccc(O)cc1)C(=O)N1[C@@H](c2ccccc2)CC[C@H]1C(=O)N[C@H](CO)C(=O)N[C@@H](CCC(N)=O)C(=O)N[C@@H](Cc1ccccc1)C(=O)N[C@H](C)C(=O)N1Cc2ccccc2C[C@H]1C(=O)N[C@@H](CO)C(=O)O
Which “EC50 (µM), activation” value does the source give for B29 here?
Its value is 0.17 µM.
